Test results published in US20120220489A1.
Each block holds one substance with its values, some of them ahead of it.

Legend:
[1] = target: pRb-BSA 1x peptide-protein conjugate (bovine); test: RPA, competition: +free pErk1/2 peptide 1000 nM
[2] = target: ERK1 (p44) inactive (GST tagged), human, Invitrogen PV 3312 (human) (UniProt P27361); test: RPA, competition: +free pErk1/2 peptide 1000 nM
[3] = target: ERK1 (p44) active (GST tagged), human, Invitrogen PV 3311 (human) (UniProt P27361); test: RPA, competition: +free pErk1/2 peptide 1000 nM
[4] = target: pErk1/2-BSA 2.7x peptide-protein conjugate (human; bovine); test: RPA, competition: +free pErk1/2 peptide 1000 nM
pErk1/2-BSA 2.7x peptide-protein conjugate (human; bovine), sequence (P02769 25-607 limits assumed): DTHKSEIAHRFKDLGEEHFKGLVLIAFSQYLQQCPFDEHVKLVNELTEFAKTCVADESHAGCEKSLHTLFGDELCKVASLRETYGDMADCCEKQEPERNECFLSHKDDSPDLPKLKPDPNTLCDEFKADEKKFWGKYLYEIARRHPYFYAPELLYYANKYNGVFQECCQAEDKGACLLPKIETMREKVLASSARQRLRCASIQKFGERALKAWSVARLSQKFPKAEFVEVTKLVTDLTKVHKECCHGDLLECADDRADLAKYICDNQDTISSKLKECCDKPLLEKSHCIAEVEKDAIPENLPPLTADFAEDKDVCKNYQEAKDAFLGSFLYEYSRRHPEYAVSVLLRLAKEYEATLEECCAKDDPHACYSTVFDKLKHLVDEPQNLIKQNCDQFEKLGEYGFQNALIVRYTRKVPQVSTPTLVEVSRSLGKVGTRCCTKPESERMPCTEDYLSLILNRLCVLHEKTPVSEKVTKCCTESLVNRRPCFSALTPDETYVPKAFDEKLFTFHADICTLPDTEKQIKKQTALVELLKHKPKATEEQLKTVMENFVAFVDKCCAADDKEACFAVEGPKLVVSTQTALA

[5] = target: ERK1 (p44), human, Cell Signaling Technology 7416 (human) (UniProt P27361); test: RPA, competition: +free pErk1/2 peptide 1000 nM
[6] = target: Histone H3-BSA 2.7x peptide-protein conjugate (bovine); test: RPA, competition: +free pErk1/2 peptide 1000 nM
Histone H3-BSA 2.7x peptide-protein conjugate (bovine), sequence (P02769 25-607 limits assumed): as above

[7] = target: Histone H3 recombinant protein, human, Upstate 14-494 (human) (UniProt P68431); test: RPA, competition: +free pErk1/2 peptide 1000 nM
[8] = target: pRb recombinant protein, human, Active Motif 31 128 (human) (UniProt P06400); test: RPA, competition: +free pErk1/2 peptide 1000 nM
UniProt P06400, sequence (P06400 whole entry): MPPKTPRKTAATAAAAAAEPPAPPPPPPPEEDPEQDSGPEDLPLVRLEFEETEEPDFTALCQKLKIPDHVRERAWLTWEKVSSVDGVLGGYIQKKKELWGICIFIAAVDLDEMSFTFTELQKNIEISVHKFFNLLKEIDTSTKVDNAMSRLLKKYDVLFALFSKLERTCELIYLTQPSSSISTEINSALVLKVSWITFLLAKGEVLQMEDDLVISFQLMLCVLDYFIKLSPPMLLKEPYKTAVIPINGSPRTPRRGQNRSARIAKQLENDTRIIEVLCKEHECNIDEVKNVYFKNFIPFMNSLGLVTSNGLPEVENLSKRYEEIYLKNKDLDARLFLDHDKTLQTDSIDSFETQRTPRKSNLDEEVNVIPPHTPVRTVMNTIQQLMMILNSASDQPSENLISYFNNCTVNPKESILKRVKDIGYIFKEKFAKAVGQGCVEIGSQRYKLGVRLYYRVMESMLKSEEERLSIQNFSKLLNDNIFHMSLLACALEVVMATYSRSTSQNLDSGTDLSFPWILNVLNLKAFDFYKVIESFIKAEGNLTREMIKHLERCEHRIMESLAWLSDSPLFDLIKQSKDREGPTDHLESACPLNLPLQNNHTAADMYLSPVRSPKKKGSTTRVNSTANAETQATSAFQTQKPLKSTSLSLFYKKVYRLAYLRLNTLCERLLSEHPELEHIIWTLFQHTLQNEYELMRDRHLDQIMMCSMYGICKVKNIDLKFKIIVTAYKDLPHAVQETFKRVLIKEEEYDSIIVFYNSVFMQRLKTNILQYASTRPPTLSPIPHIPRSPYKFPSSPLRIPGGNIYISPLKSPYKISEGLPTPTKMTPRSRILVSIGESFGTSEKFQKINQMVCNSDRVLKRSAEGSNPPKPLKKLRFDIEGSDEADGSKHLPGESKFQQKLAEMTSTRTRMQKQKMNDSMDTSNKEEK

[9] = target: Histone H3 recombinant protein, calf, Roche 11 034 758 001 (calf) (UniProt P68432); test: RPA, competition: +free pErk1/2 peptide 1000 nM
[10] = target: Erk1-BSA 2.7x peptide-protein conjugate (human; bovine); test: RPA, competition: +free pErk1/2 peptide 1000 nM
Erk1-BSA 2.7x peptide-protein conjugate (human; bovine), sequence (peptide, as listed by the source limits assumed, chain 1 of 2): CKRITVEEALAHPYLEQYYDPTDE
Erk1-BSA 2.7x peptide-protein conjugate (human; bovine), sequence (P02769 25-607 limits assumed, chain 2 of 2): as the sequence (P02769 25-607 limits assumed) above

[11] = target: ERK2 (p42), human, Biosource PHO 0104 (human) (UniProt P28482); test: RPA, competition: +free pErk1/2 peptide 1000 nM
UniProt P28482, sequence (P28482 2-360 limits assumed): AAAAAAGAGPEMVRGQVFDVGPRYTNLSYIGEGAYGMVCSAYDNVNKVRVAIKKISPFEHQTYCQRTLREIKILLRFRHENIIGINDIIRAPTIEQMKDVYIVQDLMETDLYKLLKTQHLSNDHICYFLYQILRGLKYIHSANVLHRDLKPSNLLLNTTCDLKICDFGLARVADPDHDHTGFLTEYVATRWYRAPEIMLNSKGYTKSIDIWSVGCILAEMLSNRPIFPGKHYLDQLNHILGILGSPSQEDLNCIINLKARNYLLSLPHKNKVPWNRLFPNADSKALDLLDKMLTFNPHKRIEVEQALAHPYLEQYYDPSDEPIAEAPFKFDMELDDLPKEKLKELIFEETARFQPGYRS

[12] = target: ERK1 (p42) active (phospho), human, Active Motif 31 152 (human) (UniProt P27361); test: RPA, competition: +free pErk1/2 peptide 1000 nM
[13] = target: ERK1 (p44) active (GST tagged), human, Invitrogen PV 3311 (human) (UniProt P27361); test: RPA, competition: +free pErk1/2 peptide 10 nM
[14] = target: Histone H3-BSA 2.7x peptide-protein conjugate (bovine); test: RPA, competition: +free pErk1/2 peptide 10 nM
[15] = target: pRb recombinant protein, human, Active Motif 31 128 (human) (UniProt P06400); test: RPA, competition: +free pErk1/2 peptide 10 nM
[16] = target: Erk1-BSA 2.7x peptide-protein conjugate (human; bovine); test: RPA, competition: +free pErk1/2 peptide 10 nM
[17] = target: pRb-BSA 1x peptide-protein conjugate (bovine); test: RPA, competition: +free H3 peptide 10 nM
[18] = target: ERK1 (p44) inactive (GST tagged), human, Invitrogen PV 3312 (human) (UniProt P27361); test: RPA, competition: +free H3 peptide 10 nM
[19] = target: ERK1 (p44) active (GST tagged), human, Invitrogen PV 3311 (human) (UniProt P27361); test: RPA, competition: +free H3 peptide 10 nM
[20] = target: pErk1/2-BSA 2.7x peptide-protein conjugate (human; bovine); test: RPA, competition: +free H3 peptide 10 nM
[21] = target: ERK1 (p44), human, Cell Signaling Technology 7416 (human) (UniProt P27361); test: RPA, competition: +free H3 peptide 10 nM
[22] = target: Histone H3-BSA 2.7x peptide-protein conjugate (bovine); test: RPA, competition: +free H3 peptide 10 nM
[23] = target: Histone H3 recombinant protein, human, Upstate 14-494 (human) (UniProt P68431); test: RPA, competition: +free H3 peptide 10 nM
[24] = target: pRb recombinant protein, human, Active Motif 31 128 (human) (UniProt P06400); test: RPA, competition: +free H3 peptide 10 nM
[25] = target: Histone H3 recombinant protein, calf, Roche 11 034 758 001 (calf) (UniProt P68432); test: RPA, competition: +free H3 peptide 10 nM
[26] = target: Erk1-BSA 2.7x peptide-protein conjugate (human; bovine); test: RPA, competition: +free H3 peptide 10 nM
[27] = target: ERK2 (p42), human, Biosource PHO 0104 (human) (UniProt P28482); test: RPA, competition: +free H3 peptide 10 nM
[28] = target: ERK1 (p42) active (phospho), human, Active Motif 31 152 (human) (UniProt P27361); test: RPA, competition: +free H3 peptide 10 nM
[29] = target: pRb-BSA 1x peptide-protein conjugate (bovine); test: RPA, competition: +free H3 peptide 100 nM
[30] = target: ERK1 (p44) inactive (GST tagged), human, Invitrogen PV 3312 (human) (UniProt P27361); test: RPA, competition: +free H3 peptide 100 nM
[31] = target: ERK1 (p44) active (GST tagged), human, Invitrogen PV 3311 (human) (UniProt P27361); test: RPA, competition: +free H3 peptide 100 nM
[32] = target: Histone H3-BSA 2.7x peptide-protein conjugate (bovine); test: RPA, competition: +free H3 peptide 100 nM
[33] = target: Histone H3 recombinant protein, human, Upstate 14-494 (human) (UniProt P68431); test: RPA, competition: +free H3 peptide 100 nM
[34] = target: pRb recombinant protein, human, Active Motif 31 128 (human) (UniProt P06400); test: RPA, competition: +free H3 peptide 100 nM
[35] = target: Histone H3 recombinant protein, calf, Roche 11 034 758 001 (calf) (UniProt P68432); test: RPA, competition: +free H3 peptide 100 nM
[36] = target: ERK1 (p42) active (phospho), human, Active Motif 31 152 (human) (UniProt P27361); test: RPA, competition: +free H3 peptide 100 nM

pRb-BSA 1x peptide-protein conjugate (bovine), sequence (P02769 25-607 limits assumed): as the sequence (P02769 25-607 limits assumed) above

maximum standard curve signal [1]: 0.01 RFI | maximum standard curve signal [2]: 0.01 RFI | maximum standard curve signal [3]: 0.01 RFI | maximum standard curve signal [4]: 0.1 RFI | maximum standard curve signal [5]: < 0.01 RFI | maximum standard curve signal [6]: 0.1 RFI | maximum standard curve signal [7]: 0.01 RFI | maximum standard curve signal [8]: 0.01 RFI | maximum standard curve signal [9]: 0.01 RFI | maximum standard curve signal [10]: 0.02 RFI | maximum standard curve signal [11]: 0.01 RFI | maximum standard curve signal [12]: 0.01 RFI | maximum standard curve signal [13]: 0.05 RFI | maximum standard curve signal [14]: 0.1 RFI | maximum standard curve signal [15]: 0.01 RFI | maximum standard curve signal [16]: 0.01 RFI
Substance: p44/42 MAPK phospho (pERK1/2) Thr202/Tyr204 antibody, Cell Signaling Technology #9101

maximum standard curve signal [17]: < 0.01 RFI | maximum standard curve signal [18]: < 0.01 RFI | maximum standard curve signal [19]: < 0.01 RFI | maximum standard curve signal [20]: < 0.01 RFI | maximum standard curve signal [21]: < 0.01 RFI | maximum standard curve signal [22]: 4.28 RFI | maximum standard curve signal [23]: 7.04 RFI | maximum standard curve signal [24]: < 0.01 RFI | maximum standard curve signal [25]: 0.3 RFI | maximum standard curve signal [26]: < 0.01 RFI | maximum standard curve signal [27]: < 0.01 RFI | maximum standard curve signal [28]: < 0.01 RFI | maximum standard curve signal [29]: < 0.01 RFI | maximum standard curve signal [30]: 0.02 RFI | maximum standard curve signal [31]: < 0.01 RFI | maximum standard curve signal [32]: 3.33 RFI | maximum standard curve signal [33]: 4.45 RFI | maximum standard curve signal [34]: < 0.01 RFI | maximum standard curve signal [35]: 0.2 RFI | maximum standard curve signal [36]: < 0.01 RFI
Substance: Histone H3 antibody, Abcam ab1791
